Laboratory results published in the nanobody polyreactivity screen of Harvey et al. (2022).

Experiment: yeast display, Sf9 membrane polyspecificity reagent, FACS + sequencing; frameworks hold sequencing errors
Summary of the method: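 A synthetic nanobody library was expressed on Saccharomyces cerevisiae BJ5465 by galactose induction for 36–48 hours. The library was stained for 1 hour at 4 °C with 10% biotinylated, detergent-solubilized Sf9 membrane reagent and enriched with streptavidin microbeads before FACS. Low and high (top ~1%) gates were set on anti-HA fluorescence for expression and streptavidin fluorescence for reagent binding, and each polyreactivity label reflects the gate of origin.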

Row | Sequence | polyreactivity (PSR sort gate)
1 | QVQLVESGGGLVQAGGSLRLSCAASGRIFPQNAMGWYRQAPGKERELVAVITGNGSTYYADSVKGRFTISRDNAKNTVYLQMNSLKPEDTAVYYCAARVSWPYHRGARDYWGQGTQVTVSS | low polyreactivity
2 | QVQLVESGGGLVQAGGSLRLSCAASGRIFPRYAMGWYRQAPGKERELVARITRRGGITYYADSVKGRFTISRDNAKNTVYLQMNSLTPEDTAVYYCNVDYYRGGDFSYGYDYWGQGTQVTVSS | high polyreactivity
3 | QVQLVESGGGLVQAGGSLRLSCAASGRIFPSNVMGWYRQAPGKERELVASISARGGSTYYADSVKGRFTISRDNAKNTGYLQMNSLKPEDTAVYYCHKRRSNGYSQHKLDYWGQGTQVTVSS | low polyreactivity
4 | QVQLVESGGGLVQAGGSLRLSCAASGRIFPSYAMGWYRQAPGKERELVAAISRSGGRTYYADSVKGRFTISRDNAKNTVYLQMNSLKPEDTAVYYCYPYYIASTFDYWGQGTQVTVSS | high polyreactivity
5 | QVQLVESGGGLVQAGGSLRLSCAASGRIFPSYAMGWYRQAPGKERELVAAISSSGGRTYYADSVKGRFTISRDNAKNTVYLQKNSLKPEDTAVYYCNARSPAYFYQWLYSFRYDYWGQGTQVTVSS | high polyreactivity
6 | QVQLVESGGGLVQAGGSLRLSCAASGRIFPSYMGWYRQAPGKERELVARISNTGSTYYADSVKGRFTISRDNAKNTVYIQMNSLKPEDTAVYYCAAVYIFRVFSHPPYDYWGQGTQVTVSS | low polyreactivity
7 | QVQLVESGGGLVQAGGSLRLSCAASGRIFPTNAMGWYRQAPGKERELVAGISSSGGSTYYADSVKGRFTISRDNAKNTVYLQMNSLKPEDTAVYYCNAVGYQYLRVYYWGQGTQVTVSS | low polyreactivity
8 | QVQLVESGGGLVQAGGSLRLSCAASGRIFPTNAMGWYRQPPGKEREFVAAITWRGGSTYYADSVKGRFTISRDNAKNTVYLQMNSLKPEDTAVYYCAAELDYFPGYDYWGQGTQVTLSS | low polyreactivity
9 | QVQLVESGGGLVQAGGSLRLSCAASGRIFPTYAMGWYRQAPGKERELVAAITWRGGRTYYADSVKGRFTISRDNAKNTVYLQMNSLKPEDTAVYYCAAGWLTRSYEYDYWGQGTQVTVSS | high polyreactivity
10 | QVQLVESGGGLVQAGGSLRLSCAASGRIFPVNALGWYRQAPGKEREFVAAISYSGVSTRYADSVKGRFTISRDKAKNTVYLQMNSLKPEDTAVYYCAARMSVREDYWGQGTQVNVSS | high polyreactivity
11 | QVQLVESGGGLVQAGGSLRLSCAASGRIFPVNAMGWYRQAPGKERELVATISRGGNTYYADSVKGRFTISRDNAKNTVYLQMNSLKPEDTAVYYCNVDRGNPVPPSEYWGQGTQVTVSS | low polyreactivity
12 | QVQLVESGGGLVQAGGSLRLSCAASGRIFPVYAMGWYRQAPGKERELVAAISRRGGSTYYADSVKGRFTISRDNAKNTVYLQMNSLKPEDTAVYYCAATAYYYWWWYGGDMDYWGQGTQVTLSS | high polyreactivity
13 | QVQLVESGGGLVQAGGSLRLSCAASGRIFPWYAMGWYRQAPGKERELVAAISWSGGRTYYADSVKGRFTISRDNAKITVYLQMNSLKPEDTAVYYCNTGTSGRFLSFGNFDYWGQGTQVTVSS | high polyreactivity
14 | QVQLVESGGGLVQAGGSLRLSCAASGRIFPYKAMGWYRPAPGKERELVAAITSSGGSTYYADSVKGRFTISRDNAKNTVYLQMNSLKPEDTAVYYCNKDIERYVRIYDSWGQGTQVTVSS | low polyreactivity
15 | QVQLVESGGGLVQAGGSLRLSCAASGRIFPYNAMGWYRQAPGKERELVASITGSGGSTYYADSVKGRFTISRDKAKKTVYLQMNSLKPEDTAVYYCAVQGGYFYTWDGDYWGQGTQVTVSS | low polyreactivity
16 | QVQLVESGGGLVQAGGSLRLSCAASGRIFPYNTMGLYRQAPGKERELVAAISRRGGSTYYADSVKGRFTISRDNAKNTVYLQMNSLKPEDTAVYYCNAVKPRDYGGLAYDYWGQGTQVTVSS | high polyreactivity
17 | QVQLVESGGGLVQAGGSLRLSCAASGRIFPYNVMGWYRQAPGKERELVAAISWSGGRTYYADSVKGRFTISRDNAKKTVYLQMNSLKPEDTAVYYCNTRTLVAMGYWGQGTEVTVSS | high polyreactivity
18 | QVQLVESGGGLVQAGGSLRLSCAASGRIFPYYAMGWYRQAPGKERELVAAINRGGSTNYADSVKGRFTISRDNAKNTVYLQMNSLKPEDTAVYYCAALSRTHGVSYDYWGQGTQVTVSS | high polyreactivity
19 | QVQLVESGGGLVQAGGSLRLSCAASGRIFPYYAMGWYRQAPGKERELVAAISQSGGSTNYADSVKGRFTISRDNAKNTVYLQLNSLKPEDTAVYYCNVDVSRSWAQPYTYDYWGQGTQVTVSS | low polyreactivity
20 | QVQLVESGGGLVQAGGSLRLSCAASGRIFPYYAMGWYRQAPGKERELVATITSGGSTYYADSVKGRFTISRDNAKNTVYLQMNSLKPEDTAVYYCAARYPSIYYYRYDYWGQGTQVTVSS | high polyreactivity
21 | QVQLVESGGGLVQAGGSLRLSCAASGRIFPYYAMGWYRQAPGKEWELVAAISSSSGSTYYADTVKGRFTISRDNAKNTVYLQMNSLKPEDTAVYYCAARKSWRYNIWSRNAYEDWGQGTQVTVSS | high polyreactivity
22 | QVQLVESGGGLVQAGGSLRLSCAASGRIFPYYTRGWYRQAPGKERELVATITTGGSTNYADSVKGRFTISRDNAENTVYLQMNSLKPEDTAVYYCAKREASSRWPYDYWGQGTQVTVSS | low polyreactivity

Row | Sequence | polyreactivity (PSR sort gate)
23 | QVQLVESGGGLVQAGGSLRLSCAASGRIFQAYAMGWYRQAPGKERELVASISYRGGITYYADSVKGRFTISRDNAKNTVYLQMNSLKPEDTEVYYCAAGRKGSMYYWGQGTQVTVSW | high polyreactivity
24 | QVQLVESGGGLVQAGGSLRLSCAASGRIFQGNAMGWYRQAPGKERELVAAIDWSGGGSTYADSVKGRFTISRDNAKNTVYLQMNSLKPEDTAVYYCARDVVWGEDYWGQGTQVTVSS | low polyreactivity
25 | QVQLVESGGGLVQAGGSLRLSCAASGRIFQGYAMGWYRQAPGKERELVAAISVRGGSTFYADSVKGRFTISRDNAKNTVYLQMNSLKPEDTAVYYCATRTRYRGGYWGQGTQVTVSS | high polyreactivity
26 | QVQLVESGGGLVQAGGSLRLSCAASGRIFQGYAMGWYRQAPGKERELVAAITLSGGSTYYADSVKGRFTISRDHAKNTVYLQMNSLKPEDTAVYYCNAYYPDEPSLYDYWGQVTQVTVSS | low polyreactivity
27 | QVQLVESGGGLVQAGGSLRLSCAASGRIFQKNTMGWYRQAPGKERELVAAINWNGGRTYYADSVKGRFTISRDNAKNTVYLQMNSLKPEDTAVYYCAKDGYWDFDYWGQGTQVTVSS | low polyreactivity
28 | QVQLVESGGGLVQAGGSLRLSCAASGRIFQKYAMVWYRQAPGKERELVAAISSGDSTYADSVKGRFSISRDNAKNTVYLQMNSLKPEDTAVYYCAGDLYDPWWYSYMGEYEYWGQGTQVTVSS | low polyreactivity
29 | QVQLVESGGGLVQAGGSLRLSCAASGRIFQPNVMGWYRQAPGIERELVAAIRSGSSTYYADSVKGRFTISRDNAKNTVYLQMNSLKPEDTAVDYCATRYRKQYKPYEYWGQGTQVTVSA | high polyreactivity
30 | QVQLVESGGGLVQAGGSLRLSCAASGRIFQSNAMGWNIQAPGKERELVAASNSGDSTYYADSVKGRFTISRDNAINTVYLQMNSLQPEDTAVYYSAADAVYQYYSYYYWGQGTQVTVSS | low polyreactivity
31 | QVQLVESGGGLVQAGGSLRLSCAASGRIFQTYAMGWYRQAPGKERELVASISWSGGSTYYADSVKGRFTILRDNAKNTVYLQMNSLKPEDTAVYYCAAVYYSTDYYFWYDYWGQGTQVTVSS | low polyreactivity
32 | QVQLVESGGGLVQAGGSLRLSCAASGRIFQTYDMGWYRQAPGKERELVARIRLSGGSTYYADSVKGRFTISRDNAKNTVYLQMNSLKPEETAVYYCAARYSRALFTDPYYYWGQGTQVTVSS | high polyreactivity
33 | QVQLVESGGGLVQAGGSLRLSCAASGRIFQWYAMGWYRQAPGKERELVAAISWRDGRTYYADSVKGRFTISRDNAKNNVYLQMNSLKPEDTAVYYCAVRTFGRYGYWGQGTQVTVSS | high polyreactivity
34 | QVQLVESGGGLVQAGGSLRLSCAASGRIFQYDVMGWYRQAPGKERELVARITYNGGGTYYADSVKGRFTISRDTAKNTVYLQMNSLKPEDTAVYYCNARYPWRDWEDDYWGQGTQVTVSS | low polyreactivity
35 | QVQLVESGGGLVQAGGSLRLSCAASGRIFQYNTMGWYRQAPGKERELVAGISSGGSTNYADSVKGRFTISRDNAKNTVYLQMNSLKPEDTAVYYCAARAKRYNVRFDYWGQGTQVTVSS | high polyreactivity
36 | QVQLVESGGGLVQAGGSLRLSCAASGRIFQYYAMGWYRQAPGKERELVAAIDQSGDTTYYADSVKGRFTISRDNAKNTVYLQMNSLKPEDTAVYYCAAGYDWAYHWVPQWMYYWGQGTQVTVSS | low polyreactivity
37 | QVQLVESGGGLVQAGGSLRLSCAASGRIFQYYAMGWYRQAPGKERELVASISGRGGRTYYADSVKGRFTISRDNAKNTVYLQMNSLKPEDTAVYYCNAVFSTIRYIRSYNYWGQGTQVTVSS | high polyreactivity
38 | QVQLVESGGGLVQAGGSLRLSCAASGRIFQYYDMGWYRQAPGKERELVAAITFSGGSTYYADSVKGRFTISRDNAKNTVYLLMNSLKPEDTAVYYCARGYWVYYPDGDYWGQGTQVTVSS | low polyreactivity
39 | QVQLVESGGGLVQAGGSLRLSCAASGRIFQYYTMGWYRQAPGKERELVAAITYSGGDTRYADSVKGRFTISRDNAKNTVYLQMNSLKPEDTAVYYCAAHYFHQYQYGVWTYGYWGHGTQVTVSS | low polyreactivity
40 | QVQLVESGGGLVQAGGSLRLSCAASGRIFQYYVMGWYRKAPGKERELVAAITRRGTNTYYADSVKGRFTISRDNAMNTVYLQMNSLKPEDTAVYYCAAEAQTKWWDYYYWGQGTQVTVSS | high polyreactivity
41 | QVQLVESGGGLVQAGGSLRLSCAASGRIFRAYAMGWYRQAPGKERELVAAIRGRGGSTYADSVKGRFTISRDNAKNTVYLQMNSLKPEDTAVYYCAAGYYRYAWPYYGGRDYWGQGTQVTVSS | high polyreactivity
42 | QVQLVESGGGLVQAGGSLRLSCAASGRIFRAYAMGWYRQAPGKERELVAAISSGGITSYADSVKGRFTISRDNAKNTVYLQMNSLKPEDTAVDYCAALVYPYWGGSMYYWGQGTQVTVSS | high polyreactivity
43 | QVQLVESGGGLVQAGGSLRLSCAASGRIFRDNAMGWYRQAPGKEREFVARITISTGTTYYADSVKGRFTISRDNAKNTVYLQMNSLKPEDTAVYYCAALYTVSYLTSPVSYRYDYWGQGTQVTVSS | low polyreactivity
